Publication PMC5604967, “Defining the molecular basis of interaction between R3 receptor-type protein tyrosine phosphatases and VE-cadherin” (PLoS ONE, 2017)

Assays:
[1] = target: VE-cadherin-VC (VE-cadherin ectodomain and transmembrane domain fused to the C-terminal Venus fragment) (human) (UniProt P33151); experiment: split reporter (BiFC, NanoBiT); Venus BiFC (VN155 I152L with VC155 A206K) in live HEK293T cells, 0.5 ug of each construct, confocal microscopy 24 h after transfection; mean BiFC intensity per cell or BiFC/DeepRed ratio, compared with control pairings
VE-cadherin-VC (VE-cadherin ectodomain and transmembrane domain fused to the C-terminal Venus fragment) (human), sequence (P33151 26-625): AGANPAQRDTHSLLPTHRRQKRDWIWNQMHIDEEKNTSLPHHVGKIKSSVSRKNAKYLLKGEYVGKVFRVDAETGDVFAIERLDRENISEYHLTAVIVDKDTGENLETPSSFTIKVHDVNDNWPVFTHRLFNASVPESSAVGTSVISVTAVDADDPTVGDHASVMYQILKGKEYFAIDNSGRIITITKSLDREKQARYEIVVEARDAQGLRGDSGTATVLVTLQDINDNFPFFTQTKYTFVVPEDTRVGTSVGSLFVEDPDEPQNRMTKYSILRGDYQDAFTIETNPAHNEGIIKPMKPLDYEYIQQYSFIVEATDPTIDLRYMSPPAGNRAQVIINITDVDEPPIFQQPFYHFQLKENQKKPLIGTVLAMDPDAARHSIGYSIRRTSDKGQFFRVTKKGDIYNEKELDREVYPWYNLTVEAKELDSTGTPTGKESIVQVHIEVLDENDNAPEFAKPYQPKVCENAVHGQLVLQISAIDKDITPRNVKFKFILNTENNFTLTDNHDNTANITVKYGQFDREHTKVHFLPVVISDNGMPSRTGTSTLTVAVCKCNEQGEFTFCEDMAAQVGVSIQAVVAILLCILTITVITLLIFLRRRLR

[2] = target: T1, bFos BiFC construct (UniProt P01100 118-210); experiment: split reporter (BiFC, NanoBiT); validation of the quantitative BiFC analysis with bJun/bFos (positive) and bJun/bΔFos (negative); BiFC/DeepRed ratio and mean BiFC intensity; details in S1-S4 Figs; conditions: partners not purified
T1 construct: transcription factor Fos, the construct called bFos
T1 sequence (P01100 118-210): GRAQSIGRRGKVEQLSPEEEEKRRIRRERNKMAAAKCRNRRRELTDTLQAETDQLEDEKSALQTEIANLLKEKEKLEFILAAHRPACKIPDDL

VE-PTP-VN (vascular endothelial protein tyrosine phosphatase, ectodomain and transmembrane domain, fused to the N-terminal Venus fragment) (domain or fragment), sequence (P23467 1-1647): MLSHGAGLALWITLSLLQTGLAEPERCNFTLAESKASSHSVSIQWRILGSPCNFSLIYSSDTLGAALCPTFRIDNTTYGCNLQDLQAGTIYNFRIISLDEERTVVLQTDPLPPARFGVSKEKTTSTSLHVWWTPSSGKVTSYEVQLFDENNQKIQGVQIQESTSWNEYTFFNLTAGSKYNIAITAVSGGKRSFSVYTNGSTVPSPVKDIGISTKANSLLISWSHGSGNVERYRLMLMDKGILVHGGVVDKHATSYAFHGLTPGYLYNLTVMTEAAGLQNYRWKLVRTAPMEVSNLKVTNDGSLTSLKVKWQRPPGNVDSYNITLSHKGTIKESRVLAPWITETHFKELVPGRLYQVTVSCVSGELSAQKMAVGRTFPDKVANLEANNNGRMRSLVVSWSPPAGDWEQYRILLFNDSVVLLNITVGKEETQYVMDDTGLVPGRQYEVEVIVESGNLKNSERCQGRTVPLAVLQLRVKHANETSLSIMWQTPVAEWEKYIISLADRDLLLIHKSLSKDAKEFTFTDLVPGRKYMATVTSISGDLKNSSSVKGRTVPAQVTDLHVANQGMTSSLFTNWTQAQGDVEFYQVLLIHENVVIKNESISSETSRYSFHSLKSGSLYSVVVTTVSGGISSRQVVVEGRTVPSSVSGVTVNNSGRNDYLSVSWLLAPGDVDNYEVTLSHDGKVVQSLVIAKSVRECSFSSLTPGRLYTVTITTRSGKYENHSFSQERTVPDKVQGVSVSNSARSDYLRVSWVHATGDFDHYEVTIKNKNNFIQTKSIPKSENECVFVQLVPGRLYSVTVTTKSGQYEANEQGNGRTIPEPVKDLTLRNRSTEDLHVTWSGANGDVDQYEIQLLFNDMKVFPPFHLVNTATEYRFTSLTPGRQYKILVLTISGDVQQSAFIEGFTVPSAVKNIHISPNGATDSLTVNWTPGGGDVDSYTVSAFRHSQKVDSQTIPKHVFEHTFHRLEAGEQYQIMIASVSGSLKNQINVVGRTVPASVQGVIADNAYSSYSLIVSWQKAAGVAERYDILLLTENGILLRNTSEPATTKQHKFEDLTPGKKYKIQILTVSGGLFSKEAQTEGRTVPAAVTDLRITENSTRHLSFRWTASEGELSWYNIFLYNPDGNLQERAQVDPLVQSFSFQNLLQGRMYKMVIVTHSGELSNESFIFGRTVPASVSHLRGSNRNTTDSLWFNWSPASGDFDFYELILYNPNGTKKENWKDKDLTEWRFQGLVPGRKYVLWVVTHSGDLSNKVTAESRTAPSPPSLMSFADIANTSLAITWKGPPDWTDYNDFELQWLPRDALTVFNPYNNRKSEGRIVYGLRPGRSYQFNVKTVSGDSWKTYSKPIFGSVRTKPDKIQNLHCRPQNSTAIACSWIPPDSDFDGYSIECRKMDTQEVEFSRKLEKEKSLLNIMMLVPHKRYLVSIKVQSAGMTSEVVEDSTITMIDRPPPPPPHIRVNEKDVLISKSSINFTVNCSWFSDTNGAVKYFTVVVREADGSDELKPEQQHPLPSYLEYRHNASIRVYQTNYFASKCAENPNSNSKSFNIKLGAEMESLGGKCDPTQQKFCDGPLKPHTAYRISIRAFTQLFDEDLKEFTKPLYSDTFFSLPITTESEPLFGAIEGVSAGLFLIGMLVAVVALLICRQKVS

S/N (median BiFC/DeepRed ratio over that of the negative pairing) [1] | fold mean BiFC value over controls [1] | S/N (median BiFC/DeepRed ratio of the positive pairing over that of the negative pairing bJun/bΔFos) [2] | fold difference in mean BiFC fluorescence intensity over bJun/bΔFos [2] | Molecule
6.5 | 2 to 3 fold | – | – | VE-PTP-VN (vascular endothelial protein tyrosine phosphatase, ectodomain and transmembrane domain, fused to the N-terminal Venus fragment) (domain or fragment)
– | – | 7.7 | 6 fold | bJun BiFC construct (domain or fragment, UniProt P05412 257-318, looked up, transcription factor Jun, the construct called bJun) RKRMRNRIAASKCRKRKLERIARLEEKVKTLKAQNSELASTANMLREQVAQLKQKVMNHVNS
